Test results published in PMC6389178, “Nanoscale click-reactive scaffolds from peptide self-assembly” (Journal of Nanobiotechnology, 2017).
Where no end group is shown, it is not given here.

Target: the molecule itself
Test: atomic force microscopy + co-sedimentation; peptide 10 mg/mL in 10% acetonitrile in water, shaken at 600 rpm at 37 °C for 24 h; fibrils imaged by AFM on mica; fibrils pelleted at 313,000 x g for 30 min, supernatant with unaggregated monomer removed, and the pellet's peptide analysed by LC-MS

B1: TTR105-115 peptide, unfunctionalised 'wild-type', amide-terminated (peptide)
peptide: YTIAALLSPYS-NH2
binding result: binds
